From US7351689

Biological target: human IL-28 receptor on transfected 293 HEK cells (IL-28 receptor alpha subunit with endogenous CRF2-4) (human)
Assay: cell-based or functional assay

Sequence of human IL-28 receptor on transfected 293 HEK cells (IL-28 receptor alpha subunit with endogenous CRF2-4) (human) (Q8IU57 21-520): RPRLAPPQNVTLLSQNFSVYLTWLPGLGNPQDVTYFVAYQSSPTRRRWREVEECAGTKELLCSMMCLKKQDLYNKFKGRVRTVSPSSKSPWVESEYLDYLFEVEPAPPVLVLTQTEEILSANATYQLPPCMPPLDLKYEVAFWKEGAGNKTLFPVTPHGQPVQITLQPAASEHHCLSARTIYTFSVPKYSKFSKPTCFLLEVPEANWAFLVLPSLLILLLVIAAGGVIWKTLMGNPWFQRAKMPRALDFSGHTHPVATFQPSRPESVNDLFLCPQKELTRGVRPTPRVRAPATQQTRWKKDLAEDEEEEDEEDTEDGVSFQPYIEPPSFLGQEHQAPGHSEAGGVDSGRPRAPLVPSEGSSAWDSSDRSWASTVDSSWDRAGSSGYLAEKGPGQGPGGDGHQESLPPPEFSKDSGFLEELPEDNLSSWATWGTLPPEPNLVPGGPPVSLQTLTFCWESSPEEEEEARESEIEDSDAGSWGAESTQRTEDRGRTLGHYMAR

“huIL10 (from UniProt P22301 19-178) (ligand)” was tested, and the ISRE Signaling of Transfected 293 Cells Following Class II Cytokine Stimulation (Fold Induction), ISRE-Luc./IL-28R, HuIL10 100 ng/ml (fold induction) was 0.5.
“zcyto10 (from UniProt Q9NYY1 25-176) (ligand)” showed an ISRE Signaling of Transfected 293 Cells Following Class II Cytokine Stimulation (Fold Induction), ISRE-Luc./IL-28R, Zcyto10 125 ng/ml (fold induction) of 1.
